In test [1] the target is T1, E1E2 glycoprotein complex on infectious cell culture-derived HCV particles (HCVcc) of strain JFH-1 (Hepatitis C virus genotype 2a, isolate …, UniProt Q99IB8).
T1 construct: source: concentrated HCVcc of infectious HCV strain JFH-1
Kind of test: immunocapture of virus particles. As to conditions: one partner purified.

The target of test [2] is genotype 2a JFH1 E1E2 displayed on retrovirus-based HCV pseudoparticles (HCVpp) (Hepatitis C virus genotype 2a, isolate …, UniProt Q99IB8). Briefly: immunocapture of virus particles. As to conditions: one partner purified.

B1: MAb DAO5 IgG (antibody, V domains shown)
VH: EVQLQQSGPELVKPGASLKISCKTSGYTFTDFTFHWVKLSHGPSLEWIGTIKPSNGDTAYNQKFKGKATLSVDKSASTAHIEFRSLTSEDSAVYFCARFGGSYPYAMDYWGQGTSVIVSS
VL: DIVLTQSPATLSVTPGDRVSLSCRASQGIYNYVHWFQQKSHESPRLLIKYASQSISGIPSRFSGSGSGTDFTLSINSVESEDFGMYFCQQTNKWPLTFGAGTKLELK
Take B1: the binding result in test [1] and in test [2] was “binds” each time.

The record behind these values is paper PMC5433095 (mBio, 2017).
